According to article PMC314469, “Protein Interaction Networks by Proteome Peptide Scanning” (PLoS Biology, 2004):

T1: Boi1 SH3 (BOI1_YEAST), P38041
T1 chain: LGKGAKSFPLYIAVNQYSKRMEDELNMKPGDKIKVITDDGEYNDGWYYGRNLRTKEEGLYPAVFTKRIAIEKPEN

T2: Boi2 SH3 (BOI2_YEAST), P39969
T2 chain: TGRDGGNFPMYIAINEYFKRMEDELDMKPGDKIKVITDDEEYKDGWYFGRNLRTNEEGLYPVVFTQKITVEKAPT

T3: Myo5 SH3 (MYO5_YEAST), Q04439
T3 chain: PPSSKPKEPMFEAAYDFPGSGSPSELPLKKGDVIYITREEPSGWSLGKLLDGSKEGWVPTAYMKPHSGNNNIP

T4: Rvs167 SH3 (RV167_YEAST), P39743
T4 chain: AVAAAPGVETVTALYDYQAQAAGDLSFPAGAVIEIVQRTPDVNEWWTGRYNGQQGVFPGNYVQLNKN

T5: Yfr024 SH3 (LSB3_YEAST), P43603
T5 chain: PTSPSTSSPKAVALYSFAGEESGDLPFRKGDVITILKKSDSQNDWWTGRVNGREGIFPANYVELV

T6: Yhr016c SH3 (YSC84_YEAST), P32793
T6 chain: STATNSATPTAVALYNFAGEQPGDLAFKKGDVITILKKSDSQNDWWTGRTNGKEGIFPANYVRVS


Assays:
Assay in all cases: SPOT array
[1] = molecular target: T1, Boi1 SH3 (BOI1_YEAST), P38041
[2] = molecular target: T2, Boi2 SH3 (BOI2_YEAST), P39969
[3] = molecular target: T3, Myo5 SH3 (MYO5_YEAST), Q04439
[4] = molecular target: T4, Rvs167 SH3 (RV167_YEAST), P39743
[5] = molecular target: Sho1 SH3 (SHO1_YEAST), P40073
Sho1 SH3 (SHO1_YEAST), P40073, sequence (P40073 295-366): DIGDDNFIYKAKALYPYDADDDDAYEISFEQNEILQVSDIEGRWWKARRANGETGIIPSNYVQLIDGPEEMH

[6] = molecular target: T5, Yfr024 SH3 (LSB3_YEAST), P43603
[7] = molecular target: T6, Yhr016c SH3 (YSC84_YEAST), P32793

Row | Binder | normalised SPOT signal, Boehringer light units (BLU); mean over the file's lines of this peptide [1] | normalised SPOT signal, Boehringer light units (BLU); mean over the file's lines of this peptide [2] | normalised SPOT signal, Boehringer light units (BLU); mean over the file's lines of this peptide [3] | normalised SPOT signal, Boehringer light units (BLU); mean over the file's lines of this peptide [4] | normalised SPOT signal, Boehringer light units (BLU); mean over the file's lines of this peptide [5] | normalised SPOT signal, Boehringer light units (BLU); mean over the file's lines of this peptide [6] | normalised SPOT signal, Boehringer light units (BLU); mean over the file's lines of this peptide [7]
1 | AKSNKVSPEDPAVQ [YLR081W 283-296] | 571 | 24.3 | 371 | 159 | 44.1 | 142 | 12.5
2 | AKTNKNVPVLPTPG [YDL195W 766-779] | 1420 | 70.7 | 130 | 136 | 91.3 | 97.7 | 30.3
3 | AKVNKSPPDHPYIQ [YHR094C 277-290] | 426 | 20.2 | 164 | 53 | 32.9 | 39.4 | 18.6
4 | ALEERFDPKSPTKR [YMR129W 520-533] | 948 | 13.4 | 108 | 56.3 | 33.3 | 4.1 | 63.6
5 | ALLIKTVPGFPLLE [YGR061C 138-151] | 78.5 | 48 | 144 | 11.8 | 22.1 | 39.7 | 7.6
6 | ALLRRTIPKRPFYH [YDL142C 12-25] | 4780 | 253 | 914 | 1850 | 34.4 | 7070 | 972
7 | ALSTKGYPHEPPLL [YGR172C 61-74] | 193 | 12.6 | 139 | 63.8 | 35.4 | 26.8 | 15.2
8 | ALWAKFFPEKPLNI [YGR024C 111-124] | 103 | 18.8 | 154 | 50.7 | 115 | 405 | 75.9
9 | AMESRVAPEIPGLI [YGL130W 4-17] | 82.6 | 0 | 426 | 60.5 | 47.7 | 517 | 45.4
10 | APPPKEEPAAPTST [YGR162W 923-936] | 76.3 | 3.5 | 117 | 15.9 | 37.7 | 5.8 | 0.6
11 | APVVKSEPSLPRMR [YJL083W 57-70] | 1950 | 17.7 | 241 | 70.8 | 49.7 | 512 | 63.5
12 | AQKLKLLPEEPFQR [YDL001W 74-87] | 713 | 16.2 | 401 | 76.9 | 3780 | 29.1 | 3.4
13 | ASFRKTKPPPPLDF [YAL017W 81-94] | 1950 | 21.6 | 169 | 48.5 | 19.5 | 816 | 304
14 | ASKHKMFPFNPAKI [YLR115W 531-544] | 349 | 1.5 | 953 | 80.6 | 65.5 | 214 | 16.3
15 | ATEAKSLPKIPSIP [YPL176C 343-356] | 108 | 58.5 | 137 | 47.7 | 19100 | 39.5 | 67.6
16 | ATGKRKLPGWPSAD [YIL165C 34-47] | 127 | 4 | 136 | 80.9 | 52.8 | 3620 | 92.2
